The chains are these.
B1: HDV Ribozyme (parent)
chain: GGCCGGCAUGGUCCCAGCCUCCUCGCUGGCGCCGGCUGGGCAACAUUCCGAGGGGACCGUCCCCUCGGUAAUGGCGAAUGGGACCCA

In the data set the parent is B1. Kind of data set: self-cleavage, relative activity (ratio to wild type); higher = more cleavage; co-transcriptional.
Turning to C41U C58A, the self-cleavage was 0.962.

Turning to C21U A70C, the self-cleavage is 0.332. To G29U G76C belongs 0.12; to G2C U65C, 0.14. Regarding G31U A83G, the self-cleavage amounted to 0.16. Take G31C A70C: the self-cleavage was found to be 0.266. As for U65C A87G, the self-cleavage was 0.94.

Regarding U46G G74A, the self-cleavage worked out at 0.365. To G11A C30A belongs 0.106; to U12G G25C, 0.119. To C21A G50A belongs 0.111.

U72A U79C: the self-cleavage came out at 0.248.

A8C C49U: the self-cleavage is 0.567. Regarding C49U G68C, the self-cleavage was found to be 0.784. To C48U C61A belongs 0.87; to G31C C32G, 0.0396. For the variant U65G A83C, the self-cleavage came to 0.703. In the case of U69A G82U, the self-cleavage was 0.491. To C49A A71G belongs 0.81; to C36A G39U, 0.0906; to U12C G68U, 0.284. Under A8C U65A stands 0.76; under A51U A87G, 0.965; under C7U C75U, 0.0978. Turning to G28A G76A, the self-cleavage is 0.0563.

For C24G A83C, the self-cleavage came to 0.0923. On to A42C C66U, for which the self-cleavage came out at 0.489. Under G10A C33G stands 0.0767; under G6C C84A, 0.332; under G31A C33U, 0.359. Under C7U G80C stands 0.0773; under U27C U69C, 0.931; under C19A G82U, 0.0898.

With A71G A87G, the self-cleavage was 1.06. In the case of C7G G55U, the self-cleavage turned out to be 0.17.

Turning to C58U C84U, the self-cleavage was 0.731.

In the case of A70C G81U, the self-cleavage was 0.249. Under A51C U65A stands 1.04; under A42C U72G, 0.256.

As for G1A C85G, the self-cleavage worked out at 0.101. Under C36G G81U stands 0.114; under G38C A43U, 0.116; under A43C C85U, 0.475. In the case of G1U C62U, the self-cleavage is 0.443.

Regarding G53A C84G, the self-cleavage was determined as 0.85.

Take C13A U69A: the self-cleavage is 0.277. To C61U A71U belongs 1.02; to C18U G74A, 0.0639. On to G38C A42U, for which the self-cleavage amounted to 0.208. To C19U A51G belongs 0.194; to U69C A87U, 0.993; to C21U A56C, 0.289. To C26A G81C belongs 0.193; to G35C G82U, 0.0723. To U47A A56C belongs 0.782. With G5U C13G, the self-cleavage stood at 0.0978. Take U69C C86U: the self-cleavage was 0.727. Consider U23C G52A, for which the self-cleavage amounted to 0.906.

Take G35C C48U: the self-cleavage amounted to 0.271. To C22G G53A belongs 0.0779; to C4A U60C, 0.344; to G40U C75A, 0.12. Under G73C C84G stands 0.086; under G28C C75A, 0.113; under G31U G40C, 0.0519. To U20C C61G belongs 0.128; to G28C G82U, 0.102. On to G40C G59A, for which the self-cleavage amounted to 0.179. C3A: the self-cleavage was 0.641. Under G6A C36U stands 0.286; under G38C G82A, 0.0594. To C14U G59A belongs 1.31; to C21A C64A, 0.0692; to A42G U60A, 0.302.

Consider C58A G81C, for which the self-cleavage was 0.128. On to G17U U37G, for which the self-cleavage was 0.0831.

Take G39C U47G: the self-cleavage turned out to be 0.199.

G10A G73C: the self-cleavage amounted to 0.19. Take C58G A78U: the self-cleavage is 0.277.

As to C13U G54A, the self-cleavage was 0.739.

Consider G68C G73U, for which the self-cleavage came out at 0.158. A8U G81C: the self-cleavage was 0.115. With G17A C62G, the self-cleavage turned out to be 0.633. To C26G G59C belongs 0.87; to U23C C85A, 1.01. Under C18G U65C stands 0.175. On to C19G U65G, for which the self-cleavage turned out to be 0.111.

In the case of C26U U79C, the self-cleavage was found to be 0.671. To U37A G54C belongs 0.308; to C66A A78G, 0.538. Under C33A A71U stands 0.0282.

With C4G C63U, the self-cleavage was determined as 0.249. Turning to G38C G76A, the self-cleavage stood at 0.205.

G11U G53U: the self-cleavage was determined as 0.385. Under C3G U72A stands 0.237; under A42G C58U, 0.617; under A83G, 0.806.

On to U12A G25C, for which the self-cleavage came to 0.17. Under U23C C57U stands 0.743; under U27G G76C, 1.14; under C3G U47G, 0.457. Under C49U A56C stands 0.773. Under U12C G34A stands 0.0692; under G2U C49U, 0.0821. In the case of G35A G82A, the self-cleavage was 0.265.

G17U U69A: the self-cleavage was found to be 0.306. Under C22U A87G stands 0.737; under G5U C61U, 0.399; under G1A C19A, 0.0744.

Consider C4A G38A, for which the self-cleavage is 0.133. To A70U A77U belongs 0.35; to U65C C66G, 1.11.

For U37G G39U, the self-cleavage worked out at 0. To G11A A78G belongs 0.193; to G5U U27C, 0.0978. To C49G G55U belongs 0.844; to C14U G55U, 1.24; to C64U U69C, 1.17.

With U65A C66G, the self-cleavage was determined as 0.932. Under C4U C33G stands 0; under C58G G74C, 0.101. Consider C32A U69G, for which the self-cleavage is 0.271. Under C49G C61U stands 0.432.

For C32A G81C, the self-cleavage is 0.0475. To G55C A70U belongs 0.96. On to C14G G25U, for which the self-cleavage amounted to 0.0504. To C18A A83C belongs 0.0831; to C18G, 0.131. To C21G C86A belongs 0.0665; to C4U C63U, 0.682. Under G10U A51C stands 1.09; under C30A C85U, 0.554.

Consider U20C C57A, for which the self-cleavage is 0.0449. Take C22A U47A: the self-cleavage was found to be 0.208. Under U60A U79A stands 0.923.

Consider U9A G59C, for which the self-cleavage amounted to 1.03. C41A C57G: the self-cleavage was found to be 1.04. To G28C G53C belongs 0; to C32A C33A, 0.129. In the case of G38A U79A, the self-cleavage amounted to 0.0831. Under C49A A51U stands 0.539; under C36A G67C, 0.208. Under C15U C41U stands 1.05. A43G A83G: the self-cleavage worked out at 0.215. Turning to C7G C44G, the self-cleavage was found to be 0.0755.

For the variant A45C A77C, the self-cleavage is 0.277. Take C14A G59U: the self-cleavage turned out to be 1.05. Take C22G G31U: the self-cleavage worked out at 0.0361. Consider G11A C58G, for which the self-cleavage was determined as 0.415. Regarding G6C C15A, the self-cleavage is 0. To G34U U47G belongs 0.267; to C61U C66A, 0.722.

In the case of C75A C86G, the self-cleavage was determined as 0.0997. Under A42G U72G stands 0.35; under U9C G25A, 0.277. With A8U U60C, the self-cleavage was found to be 0.492.

Take G6C G73C: the self-cleavage was found to be 0. Turning to C26A C57G, the self-cleavage was 1.1. To C4U G40C belongs 0.128; to C14G G55A, 0.59; to C7G C85U, 0.32.

Take U20C A56U: the self-cleavage stood at 0.266. In the case of G50U A77G, the self-cleavage is 0.639.

With U9G C21G, the self-cleavage was found to be 0. Under C19U G76C stands 0.277; under A8C U69G, 0.712.

Take U46C G80C: the self-cleavage was 0.399.

For the origin of these results see the RNAGym collection of RNA variant scans (doi:10.7554/elife.80360).
